This note sets out measurements from patent publication US20160024496.

Data set [1] deals with T1, DPH2 (Homo sapiens), Q9BQC3-2.
T1 sequence: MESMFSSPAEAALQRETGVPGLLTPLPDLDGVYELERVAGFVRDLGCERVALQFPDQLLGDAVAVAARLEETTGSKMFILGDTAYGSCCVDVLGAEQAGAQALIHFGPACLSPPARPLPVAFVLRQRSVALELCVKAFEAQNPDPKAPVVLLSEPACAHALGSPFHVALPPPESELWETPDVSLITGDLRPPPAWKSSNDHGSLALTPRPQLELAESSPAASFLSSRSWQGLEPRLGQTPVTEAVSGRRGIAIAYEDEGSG
The following applies: proteome array.

In a further data set the target is JARID2 (Homo sapiens) (UniProt Q92833). The following applies: proteome array, scrambled control.
Chain of JARID2 (Homo sapiens) (Q92833 whole entry): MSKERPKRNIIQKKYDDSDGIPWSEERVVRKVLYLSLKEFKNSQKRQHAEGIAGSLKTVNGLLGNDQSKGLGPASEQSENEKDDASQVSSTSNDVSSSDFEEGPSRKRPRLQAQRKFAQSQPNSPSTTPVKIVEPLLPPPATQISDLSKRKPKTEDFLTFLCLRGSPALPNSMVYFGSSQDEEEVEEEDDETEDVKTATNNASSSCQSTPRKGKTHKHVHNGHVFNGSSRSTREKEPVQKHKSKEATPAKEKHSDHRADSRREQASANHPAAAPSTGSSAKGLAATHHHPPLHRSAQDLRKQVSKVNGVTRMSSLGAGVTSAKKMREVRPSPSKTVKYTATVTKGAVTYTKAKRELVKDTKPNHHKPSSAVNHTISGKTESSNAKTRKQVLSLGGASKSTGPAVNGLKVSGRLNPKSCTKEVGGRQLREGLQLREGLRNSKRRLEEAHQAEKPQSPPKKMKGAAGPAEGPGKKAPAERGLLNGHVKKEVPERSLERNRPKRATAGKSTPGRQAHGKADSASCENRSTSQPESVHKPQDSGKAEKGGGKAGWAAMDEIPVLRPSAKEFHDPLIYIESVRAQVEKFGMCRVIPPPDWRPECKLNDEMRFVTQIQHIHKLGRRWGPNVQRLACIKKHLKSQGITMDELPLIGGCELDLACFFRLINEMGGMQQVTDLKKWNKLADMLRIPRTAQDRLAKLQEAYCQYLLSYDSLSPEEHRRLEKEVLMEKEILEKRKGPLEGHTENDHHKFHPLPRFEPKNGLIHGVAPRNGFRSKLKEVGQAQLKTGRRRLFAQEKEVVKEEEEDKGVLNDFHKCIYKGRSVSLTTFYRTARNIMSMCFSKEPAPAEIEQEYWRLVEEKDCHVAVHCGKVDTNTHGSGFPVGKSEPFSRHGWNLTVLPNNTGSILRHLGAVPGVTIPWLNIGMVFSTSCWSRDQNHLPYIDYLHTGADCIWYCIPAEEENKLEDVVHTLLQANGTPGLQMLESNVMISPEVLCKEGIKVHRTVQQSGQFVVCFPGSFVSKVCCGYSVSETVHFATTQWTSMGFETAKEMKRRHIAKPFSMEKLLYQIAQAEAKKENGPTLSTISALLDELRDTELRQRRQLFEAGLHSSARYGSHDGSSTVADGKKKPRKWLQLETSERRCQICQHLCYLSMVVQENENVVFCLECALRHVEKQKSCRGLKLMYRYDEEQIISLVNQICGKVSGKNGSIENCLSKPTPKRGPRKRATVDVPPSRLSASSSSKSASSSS
Data set [2] has as its system MITF (Homo sapiens), O75030-2. The following applies: proteome array, scrambled control.
Another data set deals with T2, NDST1 (Homo sapiens) (UniProt P52848).
T2 sequence: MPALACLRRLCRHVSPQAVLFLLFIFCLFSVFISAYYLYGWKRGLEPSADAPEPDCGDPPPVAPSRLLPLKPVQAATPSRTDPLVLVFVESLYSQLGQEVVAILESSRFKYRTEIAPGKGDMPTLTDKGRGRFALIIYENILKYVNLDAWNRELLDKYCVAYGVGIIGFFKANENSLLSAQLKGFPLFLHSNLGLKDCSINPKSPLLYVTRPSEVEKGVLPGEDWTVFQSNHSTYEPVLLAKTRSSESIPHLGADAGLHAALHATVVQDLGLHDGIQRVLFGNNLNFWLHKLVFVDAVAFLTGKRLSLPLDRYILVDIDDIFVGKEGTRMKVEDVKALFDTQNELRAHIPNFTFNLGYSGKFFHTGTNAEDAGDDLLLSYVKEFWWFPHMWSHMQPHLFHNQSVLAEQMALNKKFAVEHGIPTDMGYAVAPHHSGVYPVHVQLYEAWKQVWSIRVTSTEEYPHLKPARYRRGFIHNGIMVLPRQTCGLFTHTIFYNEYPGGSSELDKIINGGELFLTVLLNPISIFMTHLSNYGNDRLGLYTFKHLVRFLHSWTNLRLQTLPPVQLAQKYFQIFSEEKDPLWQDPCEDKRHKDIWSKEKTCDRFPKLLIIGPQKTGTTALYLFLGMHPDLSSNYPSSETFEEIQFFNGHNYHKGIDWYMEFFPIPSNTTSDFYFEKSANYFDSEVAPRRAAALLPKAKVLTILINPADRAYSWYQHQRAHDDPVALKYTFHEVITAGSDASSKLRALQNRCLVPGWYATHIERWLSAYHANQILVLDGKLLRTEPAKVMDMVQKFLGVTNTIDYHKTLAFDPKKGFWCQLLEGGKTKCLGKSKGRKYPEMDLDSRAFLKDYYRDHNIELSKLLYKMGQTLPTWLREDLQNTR
The following applies: proteome array, scrambled control.

In data set [3] the test system is T3, DAZ2 (Homo sapiens), Q13117-3.
T3 sequence: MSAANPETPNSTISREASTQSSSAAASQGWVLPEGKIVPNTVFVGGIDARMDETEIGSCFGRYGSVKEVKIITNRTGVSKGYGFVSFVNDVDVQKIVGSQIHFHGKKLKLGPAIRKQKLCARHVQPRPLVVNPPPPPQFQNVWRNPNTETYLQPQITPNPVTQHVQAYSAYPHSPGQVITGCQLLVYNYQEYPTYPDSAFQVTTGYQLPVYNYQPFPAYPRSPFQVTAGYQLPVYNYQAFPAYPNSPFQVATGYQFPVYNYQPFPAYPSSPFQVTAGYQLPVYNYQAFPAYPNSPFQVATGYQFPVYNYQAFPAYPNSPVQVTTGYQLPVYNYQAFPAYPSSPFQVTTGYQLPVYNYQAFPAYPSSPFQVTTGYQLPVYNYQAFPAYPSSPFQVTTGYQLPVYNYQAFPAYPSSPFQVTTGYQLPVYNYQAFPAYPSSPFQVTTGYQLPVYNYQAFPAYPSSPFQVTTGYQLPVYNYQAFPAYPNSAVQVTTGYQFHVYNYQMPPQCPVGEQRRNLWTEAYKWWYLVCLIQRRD
The following applies: proteome array, scrambled control.

The subject of data set [4] is ZNF695 (Homo sapiens), Q8IW36-1. The following applies: proteome array.
The target of another data set is T4, MPP7 (Homo sapiens) (UniProt Q5T2T1).
T4 sequence: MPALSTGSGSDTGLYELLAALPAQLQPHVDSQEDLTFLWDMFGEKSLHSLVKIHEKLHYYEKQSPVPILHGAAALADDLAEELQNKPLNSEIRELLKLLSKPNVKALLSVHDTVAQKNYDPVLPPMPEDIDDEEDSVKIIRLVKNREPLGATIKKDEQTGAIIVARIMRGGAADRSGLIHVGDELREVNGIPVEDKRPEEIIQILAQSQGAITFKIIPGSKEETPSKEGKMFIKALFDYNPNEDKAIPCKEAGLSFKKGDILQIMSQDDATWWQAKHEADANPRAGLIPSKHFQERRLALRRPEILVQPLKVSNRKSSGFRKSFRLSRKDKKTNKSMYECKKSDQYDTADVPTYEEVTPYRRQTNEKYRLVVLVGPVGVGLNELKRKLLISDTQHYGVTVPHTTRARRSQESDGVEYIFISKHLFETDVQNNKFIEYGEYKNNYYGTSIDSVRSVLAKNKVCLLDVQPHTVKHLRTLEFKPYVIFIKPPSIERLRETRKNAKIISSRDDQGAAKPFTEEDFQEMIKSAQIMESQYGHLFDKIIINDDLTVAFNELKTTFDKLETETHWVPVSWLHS
The following applies: proteome array, scrambled control.

In the next data set the target is T5, RANGAP1 (Homo sapiens) (UniProt P46060).
T5 sequence: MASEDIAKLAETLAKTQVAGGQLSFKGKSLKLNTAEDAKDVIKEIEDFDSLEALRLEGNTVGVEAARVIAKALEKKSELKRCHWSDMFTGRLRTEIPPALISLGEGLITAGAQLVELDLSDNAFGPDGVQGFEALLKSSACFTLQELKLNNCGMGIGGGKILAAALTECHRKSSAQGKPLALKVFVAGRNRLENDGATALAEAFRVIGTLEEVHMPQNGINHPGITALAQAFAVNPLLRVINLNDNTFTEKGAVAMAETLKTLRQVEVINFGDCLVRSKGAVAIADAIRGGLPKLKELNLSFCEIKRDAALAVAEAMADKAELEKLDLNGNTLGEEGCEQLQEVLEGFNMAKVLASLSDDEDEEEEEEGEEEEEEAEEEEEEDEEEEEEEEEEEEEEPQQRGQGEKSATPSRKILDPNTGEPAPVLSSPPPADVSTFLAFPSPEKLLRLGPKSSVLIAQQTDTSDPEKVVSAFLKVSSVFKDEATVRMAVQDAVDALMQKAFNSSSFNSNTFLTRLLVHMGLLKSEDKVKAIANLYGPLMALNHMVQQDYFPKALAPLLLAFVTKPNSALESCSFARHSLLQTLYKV
The following applies: proteome array, scrambled control.

The next data set addresses T6, ADARB2 (Homo sapiens) (UniProt Q9NS39).
T6 sequence: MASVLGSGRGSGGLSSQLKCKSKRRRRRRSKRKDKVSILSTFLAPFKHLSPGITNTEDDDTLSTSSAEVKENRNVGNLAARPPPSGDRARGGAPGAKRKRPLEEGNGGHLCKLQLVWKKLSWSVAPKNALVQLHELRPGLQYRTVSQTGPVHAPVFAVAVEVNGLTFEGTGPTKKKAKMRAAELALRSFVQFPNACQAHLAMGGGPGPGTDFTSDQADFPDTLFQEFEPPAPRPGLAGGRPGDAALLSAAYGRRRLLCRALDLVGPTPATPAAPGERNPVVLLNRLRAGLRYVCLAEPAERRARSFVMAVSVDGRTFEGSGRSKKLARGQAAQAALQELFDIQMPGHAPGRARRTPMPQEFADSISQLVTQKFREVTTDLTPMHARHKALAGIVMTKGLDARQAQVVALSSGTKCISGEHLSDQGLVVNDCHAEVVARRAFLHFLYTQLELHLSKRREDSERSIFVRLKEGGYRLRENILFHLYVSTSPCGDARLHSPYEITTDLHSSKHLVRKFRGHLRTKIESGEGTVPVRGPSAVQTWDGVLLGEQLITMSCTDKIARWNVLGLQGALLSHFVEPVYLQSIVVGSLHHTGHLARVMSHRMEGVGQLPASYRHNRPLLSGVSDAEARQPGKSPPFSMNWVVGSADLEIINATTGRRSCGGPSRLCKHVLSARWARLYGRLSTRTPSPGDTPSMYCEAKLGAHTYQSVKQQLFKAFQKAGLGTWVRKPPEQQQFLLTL
The following applies: proteome array, scrambled control.

The target in a further data set is WBP11 (Homo sapiens) (UniProt Q9Y2W2). The following applies: proteome array, scrambled control.
Chain of WBP11 (Homo sapiens) (Q9Y2W2 whole entry): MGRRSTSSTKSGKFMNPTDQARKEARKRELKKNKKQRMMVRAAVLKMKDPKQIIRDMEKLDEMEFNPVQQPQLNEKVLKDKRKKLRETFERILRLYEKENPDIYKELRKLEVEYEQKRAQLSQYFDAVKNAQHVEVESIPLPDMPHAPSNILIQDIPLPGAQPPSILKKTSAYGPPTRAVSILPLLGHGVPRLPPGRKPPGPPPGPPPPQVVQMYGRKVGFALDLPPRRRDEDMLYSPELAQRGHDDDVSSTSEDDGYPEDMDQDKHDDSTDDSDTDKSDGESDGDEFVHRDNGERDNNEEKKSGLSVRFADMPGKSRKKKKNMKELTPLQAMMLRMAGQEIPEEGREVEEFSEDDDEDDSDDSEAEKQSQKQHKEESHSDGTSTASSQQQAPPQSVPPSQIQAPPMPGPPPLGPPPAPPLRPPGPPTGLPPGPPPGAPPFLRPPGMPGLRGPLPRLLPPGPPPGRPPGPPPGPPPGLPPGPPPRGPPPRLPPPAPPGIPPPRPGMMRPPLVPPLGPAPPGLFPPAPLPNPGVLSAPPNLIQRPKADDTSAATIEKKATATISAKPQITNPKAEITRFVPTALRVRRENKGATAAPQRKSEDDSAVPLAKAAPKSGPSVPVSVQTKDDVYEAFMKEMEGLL
The target in another data set is T7, NUDT6 (Homo sapiens) (UniProt P53370).
T7 sequence: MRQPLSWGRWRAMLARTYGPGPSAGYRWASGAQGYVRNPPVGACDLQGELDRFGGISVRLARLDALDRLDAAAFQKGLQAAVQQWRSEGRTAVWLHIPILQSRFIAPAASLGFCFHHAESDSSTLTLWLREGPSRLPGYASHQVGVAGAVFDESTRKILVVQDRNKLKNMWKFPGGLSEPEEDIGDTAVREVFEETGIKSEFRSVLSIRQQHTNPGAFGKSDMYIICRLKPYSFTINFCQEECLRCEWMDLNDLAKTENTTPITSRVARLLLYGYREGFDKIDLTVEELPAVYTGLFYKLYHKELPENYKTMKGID
The following applies: proteome array, scrambled control.

Data set [5] concerns SOX6 (Homo sapiens), P35712-4. The following applies: proteome array, scrambled control.
Chain of SOX6 (Homo sapiens), P35712-4 (P35712 other isoform, or with tags, fused parts or gaps): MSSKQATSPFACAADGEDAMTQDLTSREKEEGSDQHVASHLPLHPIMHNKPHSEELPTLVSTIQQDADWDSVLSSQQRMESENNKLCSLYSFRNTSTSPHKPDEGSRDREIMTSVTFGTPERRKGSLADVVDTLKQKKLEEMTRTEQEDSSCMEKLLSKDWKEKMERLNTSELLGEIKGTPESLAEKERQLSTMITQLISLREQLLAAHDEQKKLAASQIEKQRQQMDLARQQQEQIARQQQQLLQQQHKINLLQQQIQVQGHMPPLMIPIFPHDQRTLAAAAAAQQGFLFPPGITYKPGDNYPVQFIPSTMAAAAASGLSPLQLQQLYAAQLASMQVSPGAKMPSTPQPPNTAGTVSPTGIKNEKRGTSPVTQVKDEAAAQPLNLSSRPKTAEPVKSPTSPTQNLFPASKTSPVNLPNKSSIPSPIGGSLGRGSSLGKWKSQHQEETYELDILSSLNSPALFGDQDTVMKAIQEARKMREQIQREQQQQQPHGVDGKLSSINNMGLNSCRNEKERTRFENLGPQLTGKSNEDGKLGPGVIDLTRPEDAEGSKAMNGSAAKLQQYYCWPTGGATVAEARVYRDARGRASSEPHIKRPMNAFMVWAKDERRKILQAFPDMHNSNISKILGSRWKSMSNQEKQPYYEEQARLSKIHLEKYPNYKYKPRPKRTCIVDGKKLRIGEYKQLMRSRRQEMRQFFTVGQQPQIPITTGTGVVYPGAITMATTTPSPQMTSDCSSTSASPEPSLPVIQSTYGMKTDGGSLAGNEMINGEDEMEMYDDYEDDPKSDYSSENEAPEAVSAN
The target of another data set is T8, ORAOV1 (Homo sapiens) (UniProt Q8WV07).
T8 sequence: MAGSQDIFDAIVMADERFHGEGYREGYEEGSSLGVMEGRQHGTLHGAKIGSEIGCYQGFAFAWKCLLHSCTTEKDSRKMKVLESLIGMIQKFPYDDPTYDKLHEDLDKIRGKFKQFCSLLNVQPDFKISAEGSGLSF
The following applies: proteome array, scrambled control.

A further data set addresses T9, TCL1B (Homo sapiens) (UniProt O95988).
T9 sequence: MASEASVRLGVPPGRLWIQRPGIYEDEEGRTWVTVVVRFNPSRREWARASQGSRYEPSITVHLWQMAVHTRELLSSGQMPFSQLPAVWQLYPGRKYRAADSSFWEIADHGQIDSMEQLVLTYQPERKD
The following applies: proteome array, scrambled control.

A further data set concerns the target TRIM32 (Homo sapiens) (UniProt Q13049). The following applies: proteome array, scrambled control.
Another data set addresses T10, PTER (Homo sapiens) (UniProt Q96BW5).
T10 sequence: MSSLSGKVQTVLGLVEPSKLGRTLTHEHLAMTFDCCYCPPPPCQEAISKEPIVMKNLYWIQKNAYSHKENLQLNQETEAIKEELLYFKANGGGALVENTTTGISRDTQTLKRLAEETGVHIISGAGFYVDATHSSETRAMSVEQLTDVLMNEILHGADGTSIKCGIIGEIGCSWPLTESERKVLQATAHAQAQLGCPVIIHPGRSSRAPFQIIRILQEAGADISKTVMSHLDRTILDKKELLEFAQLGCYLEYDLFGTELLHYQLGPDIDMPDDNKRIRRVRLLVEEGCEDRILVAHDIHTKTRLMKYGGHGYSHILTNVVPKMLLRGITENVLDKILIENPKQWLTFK
The following applies: proteome array, scrambled control.

For a further data set, the target named is T11, HMGB2 (Homo sapiens) (UniProt P26583).
T11 sequence: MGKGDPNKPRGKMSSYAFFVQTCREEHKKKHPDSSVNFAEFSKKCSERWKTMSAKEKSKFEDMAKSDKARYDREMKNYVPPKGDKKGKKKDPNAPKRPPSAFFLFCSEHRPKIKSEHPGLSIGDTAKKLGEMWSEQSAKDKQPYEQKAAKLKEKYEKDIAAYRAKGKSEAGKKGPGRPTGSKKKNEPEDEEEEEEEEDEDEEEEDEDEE
The following applies: proteome array, scrambled control.

A further data set concerns the target PGA5 (Homo sapiens) (UniProt P0DJD9). The following applies: proteome array, scrambled control.
The target in a further data set is CYP2C9 (Homo sapiens) (UniProt P11712). The following applies: proteome array, scrambled control.
Chain of CYP2C9 (Homo sapiens) (P11712 whole entry): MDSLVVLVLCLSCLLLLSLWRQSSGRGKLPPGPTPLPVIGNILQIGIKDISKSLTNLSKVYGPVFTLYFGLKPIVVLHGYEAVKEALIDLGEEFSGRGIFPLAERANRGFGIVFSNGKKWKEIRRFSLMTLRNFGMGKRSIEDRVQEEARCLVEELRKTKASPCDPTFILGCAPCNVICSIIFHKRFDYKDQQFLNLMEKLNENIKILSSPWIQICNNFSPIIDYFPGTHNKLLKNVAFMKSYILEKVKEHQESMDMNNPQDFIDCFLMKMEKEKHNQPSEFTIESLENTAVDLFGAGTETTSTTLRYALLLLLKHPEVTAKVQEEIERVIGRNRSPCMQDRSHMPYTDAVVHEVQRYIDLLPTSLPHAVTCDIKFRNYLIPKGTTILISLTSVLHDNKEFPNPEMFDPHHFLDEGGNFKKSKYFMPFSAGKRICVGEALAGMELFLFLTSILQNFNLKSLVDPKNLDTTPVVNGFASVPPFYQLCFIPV

Like-named read-outs stand apart in the source and are kept apart here.

Chain of ZNF695 (Homo sapiens), Q8IW36-1 (Q8IW36 other isoform, or with tags, fused parts or gaps): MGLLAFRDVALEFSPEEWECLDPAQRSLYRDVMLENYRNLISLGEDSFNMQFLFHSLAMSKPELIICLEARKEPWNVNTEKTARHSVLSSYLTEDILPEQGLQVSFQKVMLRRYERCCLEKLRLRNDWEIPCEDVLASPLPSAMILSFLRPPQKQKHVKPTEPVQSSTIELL
Chain of MITF (Homo sapiens), O75030-2 (O75030 other isoform, or with tags, fused parts or gaps): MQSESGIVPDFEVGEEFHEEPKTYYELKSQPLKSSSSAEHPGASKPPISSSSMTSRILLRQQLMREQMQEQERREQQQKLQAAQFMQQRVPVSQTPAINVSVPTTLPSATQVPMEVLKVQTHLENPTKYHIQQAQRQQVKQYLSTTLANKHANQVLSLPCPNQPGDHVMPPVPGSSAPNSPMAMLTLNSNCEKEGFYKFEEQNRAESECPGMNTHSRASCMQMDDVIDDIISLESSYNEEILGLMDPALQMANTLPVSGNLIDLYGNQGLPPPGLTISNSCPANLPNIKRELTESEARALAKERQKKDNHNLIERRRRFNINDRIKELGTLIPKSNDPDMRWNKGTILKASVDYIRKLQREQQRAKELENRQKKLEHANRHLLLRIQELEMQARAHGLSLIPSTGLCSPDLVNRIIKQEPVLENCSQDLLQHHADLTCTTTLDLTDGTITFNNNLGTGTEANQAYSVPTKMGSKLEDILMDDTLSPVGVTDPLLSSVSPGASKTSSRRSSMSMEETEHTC
Chain of PGA5 (Homo sapiens) (P0DJD9 16-388): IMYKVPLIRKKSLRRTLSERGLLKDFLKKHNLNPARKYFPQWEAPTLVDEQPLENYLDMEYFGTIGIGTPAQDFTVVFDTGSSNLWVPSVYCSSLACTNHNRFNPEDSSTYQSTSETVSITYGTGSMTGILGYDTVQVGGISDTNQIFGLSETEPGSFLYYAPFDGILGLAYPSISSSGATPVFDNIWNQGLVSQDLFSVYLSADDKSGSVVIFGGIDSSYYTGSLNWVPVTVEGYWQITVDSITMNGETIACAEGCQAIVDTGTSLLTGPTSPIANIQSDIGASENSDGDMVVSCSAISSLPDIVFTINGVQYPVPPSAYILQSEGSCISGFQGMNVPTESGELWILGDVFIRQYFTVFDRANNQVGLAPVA
Chain of TRIM32 (Homo sapiens) (Q13049 whole entry): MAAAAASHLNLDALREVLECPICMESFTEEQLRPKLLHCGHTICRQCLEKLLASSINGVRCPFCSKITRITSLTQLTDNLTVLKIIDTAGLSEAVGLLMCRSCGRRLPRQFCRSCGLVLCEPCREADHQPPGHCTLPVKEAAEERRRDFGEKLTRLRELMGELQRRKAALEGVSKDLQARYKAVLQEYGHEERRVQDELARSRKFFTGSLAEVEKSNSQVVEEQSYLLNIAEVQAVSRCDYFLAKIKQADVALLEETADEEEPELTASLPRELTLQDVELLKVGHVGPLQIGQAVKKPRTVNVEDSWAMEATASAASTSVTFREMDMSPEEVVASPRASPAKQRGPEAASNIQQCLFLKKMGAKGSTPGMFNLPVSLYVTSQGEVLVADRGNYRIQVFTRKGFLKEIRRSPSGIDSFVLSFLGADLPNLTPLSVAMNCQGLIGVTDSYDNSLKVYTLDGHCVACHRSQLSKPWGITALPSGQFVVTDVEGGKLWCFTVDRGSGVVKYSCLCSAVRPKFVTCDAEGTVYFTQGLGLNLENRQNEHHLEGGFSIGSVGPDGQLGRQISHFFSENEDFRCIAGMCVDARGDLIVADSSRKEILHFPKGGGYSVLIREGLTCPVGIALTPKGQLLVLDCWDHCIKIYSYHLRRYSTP

Regarding GC-scrambled RNA, the binding signal in data set [1] (scrambled control) stood at 3.43 Z-score; in the data set with JARID2 (Homo sapiens), 0.64 Z-score; in data set [2], 6.71 Z-score; in the data set with NDST1 (Homo sapiens) it was 8.06 Z-score; in data set [3] it was 7.8 Z-score; in data set [4] (scrambled control), 2.18 Z-score. Besides, the binding signal in the data set with MPP7 (Homo sapiens) was 0.3 Z-score; in the data set with RANGAP1 (Homo sapiens) it was 1.21 Z-score; in the data set with ADARB2 (Homo sapiens) it was -0.2 Z-score; with WBP11 (Homo sapiens), -0.17 Z-score; in the data set with NUDT6 (Homo sapiens), 8.38 Z-score; in data set [5], 1.16 Z-score. Besides, the binding signal came out at 0.41 Z-score with ORAOV1 (Homo sapiens); 5.42 Z-score in the data set with TCL1B (Homo sapiens); 4.63 Z-score with TRIM32 (Homo sapiens); 4.09 Z-score with PTER (Homo sapiens); 1.23 Z-score with HMGB2 (Homo sapiens); 2.96 Z-score with PGA5 (Homo sapiens). The substance further gave a binding signal with CYP2C9 (Homo sapiens) of 1.49 Z-score.
Consider “GGGGCCGGGGCCGGGGCCGGGGCCGGGGCCGGGGCCGGG [GGGGCCx6.5 RNA]”, for which the binding signal turned out to be 14 Z-score in data set [1] ([none], delta Z 10.61) and 4.76 Z-score in data set [4] ([none], delta Z 2.58).
